Measured values reported in paper PMC6482348.

Columns and labels:
[1] = target: T1, endogenous mouse PrxI (mouse (endogenous in BMDMs)), P35700; assay: nonreducing SDS-PAGE and immunoblot of disulfide-linked complexes; settings: remark: other sources report otherwise
T1 chain: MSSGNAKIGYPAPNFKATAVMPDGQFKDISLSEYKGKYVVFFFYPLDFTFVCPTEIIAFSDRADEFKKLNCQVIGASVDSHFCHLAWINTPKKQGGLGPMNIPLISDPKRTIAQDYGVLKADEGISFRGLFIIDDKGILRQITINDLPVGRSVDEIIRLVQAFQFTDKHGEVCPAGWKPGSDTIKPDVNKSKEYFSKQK

[2] = target: T2, endogenous mouse PrxII (mouse (endogenous in MEFs and BMDMs)), Q61171; assay: as above; settings: remark: other sources report otherwise
T2 chain: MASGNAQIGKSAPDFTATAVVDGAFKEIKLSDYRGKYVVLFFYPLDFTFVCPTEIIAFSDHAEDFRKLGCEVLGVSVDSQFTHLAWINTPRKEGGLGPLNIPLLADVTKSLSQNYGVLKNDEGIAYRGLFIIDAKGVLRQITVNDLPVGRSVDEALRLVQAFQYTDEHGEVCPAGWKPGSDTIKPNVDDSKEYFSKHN

B1: endogenous mouse PrxI, P35700 1-199 (enzyme)
chain: MSSGNAKIGYPAPNFKATAVMPDGQFKDISLSEYKGKYVVFFFYPLDFTFVCPTEIIAFSDRADEFKKLNCQVIGASVDSHFCHLAWINTPKKQGGLGPMNIPLISDPKRTIAQDYGVLKADEGISFRGLFIIDDKGILRQITINDLPVGRSVDEIIRLVQAFQFTDKHGEVCPAGWKPGSDTIKPDVNKSKEYFSKQK
**Q.** B1 was tested. Which stoichiometry N [1] did it give?
**A.** Its stoichiometry N is 2.

B2: endogenous mouse PrxII, Q61171 1-198 (enzyme)
chain: MASGNAQIGKSAPDFTATAVVDGAFKEIKLSDYRGKYVVLFFYPLDFTFVCPTEIIAFSDHAEDFRKLGCEVLGVSVDSQFTHLAWINTPRKEGGLGPLNIPLLADVTKSLSQNYGVLKNDEGIAYRGLFIIDAKGVLRQITVNDLPVGRSVDEALRLVQAFQYTDEHGEVCPAGWKPGSDTIKPNVDDSKEYFSKHN
**Q.** B2 was tested. Which stoichiometry N [2] did it give?
**A.** Its stoichiometry N is 2.
